In assay [1] the target is T1, 78-kDa glucose-regulated protein (GRP78) (UniProt P11021 19-654).
T1 construct: 'peptides 86-90' in Biacore; also called BiP; HSP5a
Put plainly: flow cytometry, H460 cells, gMFI, 4PL fit; x axis of panel B is printed 'Log10 [6F8] nM' although title and legend say 7A9. On the procedure: FIG. 11A-11B show flow cytometry for cell surface binding of 7A9 antibody to H460 cells. FIG. 11A is the flow cytometry assay for cell surface binding of 7A9 antibody to H460 cells. Binding conditions: 0.1×10⁶ cells incubated with 3-fold dilutions of antibody started at 1.0 μM. Cells were washed 2× with FACS buffer. Stained with secondary antibody. Washed twice and analyzed in FACS buffer by flow cytometer FACS Canto II (BD). […]
In general terms: Flow cytometry measures light scatter and fluorescence of single cells or particles in a stream.

Assay [2] deals with T2, peptide 86.
T2 construct: 12-mer from the C-terminus of GRP78
T2 peptide: IEDFKAKKKELE
Put plainly: Biacore T200, 7A9 immobilized on CM5 chip, peptide as analyte, blank-subtracted relative response. Here is the method:
(§1) FIG. 6A depicts a graph of the relative response binding of 7A9. Epitope mapping was performed using Biacore T200. 7A9 was immobilized on the CM5 sensor chip and peptides 86-90 (overlapping peptides in the immunogen region of 7A9) were passed as analyte. Relative binding response (response on blank channel subtracted from the 7A9 immobilized channel) of each peptide to 7A9 was analyzed using the BIAevaluation software. Cut-off for nonbinding peptides is 0 RU. […] The figure was generated using Pymol software (SEQ ID NO: 70).
(§2) FIG. 6A-6B Epitope mapping of 7A9 antibody was performed using Biacore T200. 7A9 was immobilized on the CM5 sensor chip and peptides 86-90 (overlapping peptides in the immunogen region of 7A9) were passed as analyte. Relative binding response (response on blank channel subtracted from the 7A9 immobilized channel) of each peptide to 7A9 was analyzed using the BIAevaluation software. Cut-off for nonbinding peptides is 0 RU. Three-dimensional model of GRP78 protein indicating the epitope sequence on the protein in red color. The figure was generated using Pymol software.

In assay [3] the target is T3, peptide 89.
T3 construct: 12-mer from the C-terminus of GRP78
T3 peptide: LYGSAGPPPTGE
The assay is described as above. On the procedure: as §1, §2

The target of assay [4] is T4, peptide 87.
T4 construct: 12-mer from the C-terminus of GRP78
T4 peptide: KKELEEIVQPII
The description is as above. Here is the method:
as §1, §2

Assay [5] deals with T1, 78-kDa glucose-regulated protein (GRP78). Put plainly: flow cytometry, H460 cells, gMFI, one site-specific binding fit; no unit beside the number, x axis in nM; all points lie at gMFI about 1000-1400, so the fit rests on no point of the rising part. Here is the method:
FIG. 11A-11B show flow cytometry for cell surface binding of 7A9 antibody to H460 cells. FIG. 11A is the flow cytometry assay for cell surface binding of 7A9 antibody to H460 cells. Binding conditions: 0.1×10⁶ cells incubated with 3-fold dilutions of antibody started at 1.0 μM. Cells were washed 2× with FACS buffer. Stained with secondary antibody. Washed twice and analyzed in FACS buffer by flow cytometer FACS Canto II (BD). Geometric mean fluorescence intensity was fitted using the One site-specific binding in Graphpad Prism software.

Assay [6] addresses T5, peptide 90.
T5 construct: 12-mer from the C-terminus of GRP78
T5 peptide: PPTGEEDTAEKD
Put plainly: peptide dot blot on nitrocellulose, chemiluminescence. On the procedure: Seven peptides were synthesized from the c-terminus of GRP78. Each peptide was a 12-mer with 5 amino acid overlap. Each of the peptide was coated in duplicate on nitrocellulose membrane and incubated with 7A9 antibody. After washing, the blot was developed using chemiluminescence. The arrows indicate positive spot.
(§3) Seven peptides were synthesized from the c-terminus of GRP78. Each peptide was a 12-mer with 5 amino acid overlap. The sequences of the peptides are shown above. Each of the peptide was coated in duplicate on nitrocellulose membrane and incubated with 7A9 antibody. After washing, the blot was developed using chemiluminescence. The arrows indicate positive spot, FIG. 4. 7A9 epitope: SEQ ID NO: 70 ([…] . . . EDTAE). FIG. 5A-5B Epitope mapping of 6F8 antibody was performed using Biacore T200. 6F8 was immobilized on the CM5 sensor chip and peptides 86-90 (overlapping peptides in the immunogen region of 6F8) were passed as analyte. Relative binding response (response on blank channel subtracted from the 6F8 immobilized channel) of each peptide to 6F8 was analyzed using the BIAevaluation software. Cut-off for nonbinding peptides is 0 RU. Three-dimensional model of GRP78 protein indicating the epitope sequence on the protein in magenta color. The figure was generated using Pymol software.

Assay [7] addresses T1, 78-kDa glucose-regulated protein (GRP78). Put plainly: flow cytometry, H460 cells, gMFI minus secondary only, one site-specific binding fit; no unit beside the number, x axis in nM. Here is the method: FIG. 9A-9B are graphs showing the cell surface binding of 6F8 to H460 cells. […] Binding conditions: 0.1×10^6 cells incubated with 3-fold dilutions of antibody started at 0.7 μM. Cells were washed 2× with FACS buffer. Stained with secondary antibody. Washed twice and analyzed in FACS buffer by flow cytometer FACS Canto II (BD). Geometric mean fluorescence intensity was fitted using the One site-specific binding in Graphpad Prism software.

For assay [8] the target is unchanged. Put plainly: flow cytometry, H460 cells, gMFI minus secondary only, 4PL fit. On the procedure: FIG. 9A-9B are graphs showing the cell surface binding of 6F8 to H460 cells. […] Binding conditions: 0.1×10^6 cells incubated with 3-fold dilutions of antibody started at 0.7 μM. Cells were washed 2× with FACS buffer. Stained with secondary antibody. Washed twice and analyzed in FACS buffer by flow cytometer FACS Canto II (BD). […]

In the next assay the target is T6, C-terminal GRP78 peptide.
T6 construct: name from the legend, the sheet prints only 'GRP78 Hybridoma ELISA'
T6 sequence (P11021 other isoform, or with tags, fused parts or gaps): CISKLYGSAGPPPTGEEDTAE
Put plainly: ELISA on C-terminal GRP78 peptide. For orientation: In an ELISA, binding on a coated surface is turned into a signal by an enzyme label.

Assay [9] addresses T1, 78-kDa glucose-regulated protein (GRP78). Put plainly: flow cytometry, A549 cells, gMFI minus secondary only, one site-specific binding fit; no unit beside the number, x axis in nM. Here is the method: (§4) FIG. 7A-7B show graphs of flowcytometry data for the cell surface binding of GRP78 antibodies. […] Binding conditions: 0.1×10⁶ cells incubated with 3-fold dilutions of antibody started at 2.22 μM. Cells were washed 2× with FACS buffer. Stained with secondary antibody. Washed twice and analyzed in FACS buffer by flow cytometer FACS Canto II (BD). Geometric mean fluorescence intensity was fitted using the “One site-specific binding” in Graphpad Prism software.
(§5) A Flow cytometry assay for cell surface binding of 6F8 antibody to A549 cells was done (FIG. 7A-7B). Binding conditions: 0.1×10⁶ cells incubated with 3-fold dilutions of antibody started at 2.22 μM. Cells were washed 2× with FACS buffer. Stained with secondary antibody. Washed twice and analyzed in FACS buffer by flow cytometer FACS Canto II (BD). Geometric mean fluorescence intensity was fitted using the “One site-specific binding” in Graphpad Prism software. Graph showing the same data as in A fitted using the “Sigmoidal, 4PL, X is log(concentration)” in Graphpad Prism software (FIG. 7B).

The target in the next assay is T7, peptide 88.
T7 construct: 12-mer from the C-terminus of GRP78
T7 peptide: VQPIISKLYGSA
Put plainly: Biacore T200, 6F8 immobilized on CM5 chip, peptide as analyte, blank-subtracted relative response. On the procedure:
(§6) FIG. 5A-5B show the epitope mapping of 6F8 antibody. FIG. 5A depicts a graph of the relative response binding. Epitope mapping was performed using Biacore T200. 6F8 was immobilized on the CM5 sensor chip and peptides 86-90 (overlapping peptides in the immunogen region of 6F8) were passed as analyte. Relative binding response (response on blank channel subtracted from the 6F8 immobilized channel) of each peptide to 6F8 was analyzed using the BIAevaluation software. Cut-off for nonbinding peptides is 0 RU. […] The figure was generated using Pymol software (SEQ ID NO: 71).
as §3
On the technique in general: SPR reads the build-up and loss of mass on a sensor chip optically.

Assay [10] addresses T5, peptide 90. The description is as above. Here is the method:
as §6, §3

Assay [11] has as its target T2, peptide 86. The assay is described as above. Here is the method: as §6, §3
In assay [12] the target is T3, peptide 89. The assay is described as above. Here is the method: as §6, §3
The target of assay [13] is T4, peptide 87. The description is as above. Here is the method: as §6, §3
In assay [14] the target is T1, 78-kDa glucose-regulated protein (GRP78). Put plainly: flow cytometry, A549 cells, gMFI minus secondary only, 4PL fit. Here is the method: as §4, §5

T1 sequence (P11021 19-654 limits assumed): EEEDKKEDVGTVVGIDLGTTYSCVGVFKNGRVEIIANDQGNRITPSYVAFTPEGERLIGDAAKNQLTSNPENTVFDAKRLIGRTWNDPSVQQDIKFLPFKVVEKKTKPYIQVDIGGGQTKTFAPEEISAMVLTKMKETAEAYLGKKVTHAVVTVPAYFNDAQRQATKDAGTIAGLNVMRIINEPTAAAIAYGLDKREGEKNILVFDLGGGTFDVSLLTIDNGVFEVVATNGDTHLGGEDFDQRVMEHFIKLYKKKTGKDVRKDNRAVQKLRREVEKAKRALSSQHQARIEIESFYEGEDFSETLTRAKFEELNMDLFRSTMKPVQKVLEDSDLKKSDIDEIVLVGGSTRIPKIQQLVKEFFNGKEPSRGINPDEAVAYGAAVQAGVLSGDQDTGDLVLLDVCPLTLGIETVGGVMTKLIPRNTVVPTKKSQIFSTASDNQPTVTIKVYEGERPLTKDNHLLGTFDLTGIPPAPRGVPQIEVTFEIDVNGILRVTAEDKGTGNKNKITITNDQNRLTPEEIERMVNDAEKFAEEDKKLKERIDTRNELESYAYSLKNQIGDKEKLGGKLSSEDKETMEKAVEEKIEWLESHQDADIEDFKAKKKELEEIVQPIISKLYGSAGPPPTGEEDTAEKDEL

B1: 7A9 anti-GRP78 mouse monoclonal antibody (antibody, V domains shown)
VH: EVQLVETGGGLVQPKGSLKLSCAVSGITFNINAMNWVRQAPGKGLEWVARIRSKSNNYATYYADSVKDRFTISRDDSQSMLYLQMNNLKTEDTAMYYCVRDITRAGYFDVWGAGTTVTVSS
VL: QIVLTQSPAIMSASPGEKVTITCSASSSVIYMHWFQQKPGTSPKLWIYSTSNLASGVPARFSGSGSGTSYSLTISRMEAEDAATYYCQQRSSYPLTFGAGTKLELK
For the molecule B1, in assay [1], the “EC50 (read off the curve)” value was approximately 40 nM. The binding result in the assay with peptide 86 [2] is listed as “no binding”; with peptide 89 [3] it was “no binding”; with peptide 87 [4] it was “no binding”; with peptide 90 [6], “binds”. Moreover, in assay [5], the Kd stood at 0.108 nM.

B2: 6F8 anti-GRP78 mouse monoclonal antibody (antibody, V domains shown)
VH: EVQLVESGGGLVRPKGSLKLSCAASGFTLNTSAMNWVRQVPGKGLEWVGRIRSKNYNYATYYADSVKDRFTIFRDDSQNMLYLQMNNLKTEDTAMYYCVRPPGFAYWGQGTLVTVSA
VL: DIQMTQSPSSLSASLGERVSLTCRTSQEISGHLSWLQQKPDGTIKRLIYAASSLDSGVPKRFSGSRSGSDYSLTISSLESEDFADYYCLQYSSYPYTFGGGTKLEIK
B2: the Kd in assay [7] is 35.8 nM; in [9] it was 16.4 nM. Moreover, the “EC50 (read off the curve)” value is approximately 100 nM in assay [8], approximately 1000 nM with C-terminal GRP78 peptide and approximately 50 nM in assay [14]. Further, the binding result is recorded as “no binding” with peptide 88; “binds” with peptide 90 [10]; “no binding” with peptide 86 [11]; “no binding” with peptide 89 [12]; “no binding” with peptide 87 [13].

For orientation: EC50 (read off the curve) means the concentration that produces a half-maximal response. Lower therefore signals higher potency in that assay. A word on the Kd: it is the concentration at which binding is half-saturated.
